Self-cleavage data for 167 variants are collected here from the RNAGym collection of RNA variant scans (doi:10.7554/elife.80360).

B1: HDV Ribozyme (parent)
chain: GGCCGGCAUGGUCCCAGCCUCCUCGCUGGCGCCGGCUGGGCAACAUUCCGAGGGGACCGUCCCCUCGGUAAUGGCGAAUGGGACCCA

Variants of B1 are the subject of the series. Briefly: self-cleavage, relative activity (ratio to wild type); higher = more cleavage; co-transcriptional.
Take U23C G67A: the self-cleavage was determined as 0.927. As to U23G G67U, the self-cleavage turned out to be 0.789. Take C22U G74C: the self-cleavage came out at 0.157.

As for U23A C86A, the self-cleavage was determined as 1.21. As to U23G C44G, the self-cleavage was found to be 0.277. For the variant C24A G25U, the self-cleavage stood at 0.277. As for C24A G25C, the figure is 0.208. With U23A C63U, the self-cleavage was determined as 0.96.

On to U23C C36U, for which the self-cleavage amounted to 0.365.

For C22U U65C, the self-cleavage is 0.78. For the variant C24A A87U, the self-cleavage was determined as 0.749.

Consider C24A A87G, for which the self-cleavage was 0.7. Consider U23C G80C, for which the self-cleavage was 0.188. In the case of U23C G80A it was 0.394; in that of U23C G80U, 0.16. As for U23G G76C, the figure is 0.684; as for U23C U72C, 0.665; as for U23G A45G, 0.962. As for U23G A45C, the self-cleavage amounted to 0.151.

In the case of U23G C41U, the self-cleavage came out at 0.723. As to U23A C85U, the self-cleavage worked out at 0.98.

For the variant C24A C62G, the self-cleavage is 0.554. In the case of U23A G40U it was 0.769; in that of U23C C26G, 1.05.

On to U23G C33A, for which the self-cleavage worked out at 0. Turning to C24A C86U, the self-cleavage was 0.633. In the case of U23A U79G it was 0.665; in that of C24A G28U, 0.0386; in that of C24A G28A, 0.208. As for U23C G68C, the figure is 0.727; as for U23G C58U, 0.582. U23G C58G: the self-cleavage is 0.72. As for U23A A77U, the figure is 0.567; as for U23A A77C, 0.332; as for U23G G40U, 0.431. On to C22U G73C, for which the self-cleavage came out at 0.256. Consider C22U G73U, for which the self-cleavage came out at 0.157. On to C22U U60A, for which the self-cleavage turned out to be 0.623. For the variant C22U U60G, the self-cleavage worked out at 0.944. As for C22U U60C, the figure is 0.767; as for U23A C61G, 1.08. In the case of U23A C61A it was 1.03; in that of U23A C36U, 0.671; in that of U23G G25U, 0.0594. Turning to U23G A78U, the self-cleavage turned out to be 0.0875. U23G A78G: the self-cleavage stood at 0.262. Turning to U23C G34A, the self-cleavage was determined as 0.0898. U23G A87U: the self-cleavage amounted to 0.715. In the case of U23A A78C it was 0.219; in that of C24A A51G, 0.665; in that of U23G C49G, 0.346. With U23A G31A, the self-cleavage was determined as 0.489. For U23C G81C, the self-cleavage is 0.249. As for U23C C41G, the figure is 0.201; as for U23G G28C, 0; as for U23A U60C, 1.16. In the case of U23G G74A it was 0.0489; in that of U23C G55A, 0.814. For C22U U27C, the self-cleavage came out at 0.312. Regarding C22U U27A, the self-cleavage was 0.227. Regarding C24A C84U, the self-cleavage was determined as 0.587. In the case of U23A G25A, the self-cleavage stood at 0.277. In the case of U23C C75G it was 0.148.

In the case of U23C G74U, the self-cleavage came to 0.554. For the variant U23G A43U, the self-cleavage stood at 0.219.

With U23G G39A, the self-cleavage turned out to be 0.17. Consider U23A G74U, for which the self-cleavage amounted to 0.348. For U23A U69G, the self-cleavage came to 0.911.

Turning to U23G C63A, the self-cleavage was determined as 0.623. As for C22U U72G, the figure is 0.17. With C22U U72A, the self-cleavage was 0.219.

On to U23A C24A, for which the self-cleavage stood at 0.623. As for U23A C24U, the figure is 0.199; as for U23G C61G, 0.628. In the case of U23C G53U, the self-cleavage came to 0.938. Consider C22U G76A, for which the self-cleavage amounted to 0.643. With C22U G76U, the self-cleavage is 0.794. In the case of C24A G35A, the self-cleavage worked out at 0.212. As for C24A A78U, the figure is 0.0923. As for U23G U65C, the figure is 0.864; as for U23C C61A, 0.982. In the case of U23A A42C it was 0.253; in that of C24A A83U, 0.415.

C24A A83C: the self-cleavage came to 0.192. In the case of U23A U27C it was 0.575. In the case of U23A G55U it was 0.976; in that of U23A C30G, 0. Take U23A A56U: the self-cleavage turned out to be 1.08. As for U23A G73U, the figure is 0.464; as for U23G C48U, 0.731; as for U23G C48G, 0.361. U23G C75A: the self-cleavage turned out to be 0. As for U23G C75G, the figure is 0.111; as for C24A C66A, 0.764. As for C24A C48A, the self-cleavage came out at 0.717.

As to U23C C57A, the self-cleavage came to 0.849. Consider U23C U79G, for which the self-cleavage is 0.883. As for U23G G55C, the figure is 0.748. In the case of C24A A45C it was 0.19; in that of U23A C75U, 0.346; in that of U23A C41A, 1.07.

For the variant C22U U79G, the self-cleavage amounted to 0.178. Consider C22U U79C, for which the self-cleavage turned out to be 0.198. In the case of U23A A71C it was 0.712; in that of U23A A83C, 0.508. For U23C G35A, the self-cleavage was found to be 0.655. As to U23C G35C, the self-cleavage was 0.115. In the case of C24A A77C, the self-cleavage worked out at 0.185. In the case of U23G C66A it was 0.724; in that of C24A G29C, 0.136; in that of U23G C36U, 0.386. In the case of U23G C36G it was 0.252; in that of U23G A70U, 0.492. Take U23A C66G: the self-cleavage stood at 0.787. In the case of U23G C32G it was 0.237; in that of C24A G34U, 0.0831; in that of U23G G29U, 0. For C22U U46G, the self-cleavage amounted to 0.192. As for U23C A87G, the figure is 0.855.

On to U23G U69C, for which the self-cleavage was 0.598. U23A C57U: the self-cleavage came out at 0.812. As for U23A C57A, the figure is 1.09; as for U23A C57G, 1.06. As for C24A C75U, the figure is 0.169; as for C24A C75G, 0.0898; as for U23C G28A, 0.0396. As for U23G C26G, the figure is 0.831; as for U23C U47G, 1.28.

In the case of U23C U47C, the self-cleavage came out at 1.04. Turning to U23A G39C, the self-cleavage was 0.204. As for U23A A70U, the figure is 0.962; as for U23G U79A, 0.322; as for C22U G82U, 0.23. As for C24A C57U, the figure is 0.727; as for U23C U69G, 0.739.

As to U23C U69A, the self-cleavage was determined as 0.8.

On to U23C A45U, for which the self-cleavage was found to be 0.675. Turning to U23C A45G, the self-cleavage was determined as 0.8. For the variant U23C G29C, the self-cleavage worked out at 0.0475. Take U23C G31A: the self-cleavage was determined as 0.266. For U23C G31U, the self-cleavage worked out at 0.151.

In the case of U23G G80U, the self-cleavage is 0.129. In the case of U23G G80A it was 0.134. In the case of U23G C62G it was 0.453; in that of U23G C24A, 0.706. In the case of U23G C24U it was 0.314; in that of U23G U37G, 0.217. On to U23G U37C, for which the self-cleavage is 0.751. In the case of U23A C62G it was 0.776; in that of U23C A51U, 1.15; in that of U23C A51G, 0.978. Turning to U23C U27G, the self-cleavage was 1.06. In the case of C24A C49G it was 0.787.

Consider U23G G34U, for which the self-cleavage was 0.0959.

Turning to U23C U60G, the self-cleavage was 0.798. Regarding U23G G52C, the self-cleavage stood at 0.807. As for U23A G35A, the figure is 0.864; as for U23A G76C, 1.1; as for U23G U60A, 0.831. In the case of C24A C26A it was 0.743.

With U23C C30G, the self-cleavage worked out at 0.0437.

With U23C C30U, the self-cleavage came out at 0.755.

Take U23C C24U: the self-cleavage is 0.57. Turning to U23C C24G, the self-cleavage is 0.0437. Consider U23A C64A, for which the self-cleavage came to 0.814. As to U23C C85U, the self-cleavage was 0.849. With C24A A43C, the self-cleavage was 0.0415.
